Biological target: SHOX full length (Homo sapiens) (UniProt O15266)
Assay: cell_activity
Details: luciferase

Chain of SHOX full length (Homo sapiens) (O15266 whole entry): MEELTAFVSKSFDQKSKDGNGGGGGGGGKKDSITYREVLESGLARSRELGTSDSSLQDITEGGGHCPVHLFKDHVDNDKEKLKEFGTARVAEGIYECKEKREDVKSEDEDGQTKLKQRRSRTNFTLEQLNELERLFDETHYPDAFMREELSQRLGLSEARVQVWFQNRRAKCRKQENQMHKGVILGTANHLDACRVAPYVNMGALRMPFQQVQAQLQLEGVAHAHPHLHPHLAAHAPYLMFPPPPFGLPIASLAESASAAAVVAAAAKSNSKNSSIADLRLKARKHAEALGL

Q: Which activity (fold induction) does the source give for “p3XG reporter (SHOX binding site before SV40 core promoter)” here?
A: 2

Q: For “BNP 5' flanking region reporter (BNP for / BNP rev)”, which activity (fold induction) (forward orientation, reverse 8-fold) is on record?
A: 10

— US20080293632
